Source: the RNAGym collection of RNA variant scans (doi:10.1021/acssynbio.7b00057)

B1: Pistol ribozyme (parent)
chain: GGGUCGUUGUUCCAUAAUCGCGUGGAUAUGGCACGCAAGUUUCUACCGGGCACCGUAAAUGUCCGACUGGAGCCGUUCGGGCGGCUAUAAACAGACCUCAGGCCCGAAGCGUGGCGGCACCUGCCGCCGGUGGUAAAAAAGAUCGGAAGAGCACACGUCU

Variants of: B1
Assay: aptazyme ON/OFF ratio, guanine; higher = stronger switching; co-transcriptional cleavage with and without guanine

Variant | aptazyme ON/OFF ratio
GGGUCGGAAGGUAAUAAUCGCGUGGAUAUGGCACGCAAGUUUCUACCGGGCACCGUAAAUGUCCGACUGGAGCCGUUCGGGCGGCUAUAAACAGACCUCAGGCCCGAAGCGUGGCGGCACCUGCCGCCGGUGGUAAAAAAGAUCGGAAGAGCACACGUCU | 1.4
GGGUCGGAAGGUGAUAAUCGCGUGGAUAUGGCACGCAAGUUUCUACCGGGCACCGUAAAUGUCCGACUGGAGCCGUUCGGGCGGCUAUAAACAGACCUCAGGCCCGAAGCGUGGCGGCACCUGCCGCCGGUGGUAAAAAAGAUCGGAAGAGCACACGUCU | 1.18
GGGUCGGAAGGCCAUAAUCGCGUGGAUAUGGCACGCAAGUUUCUACCGGGCACCGUAAAUGUCCGACUGGAGCCGUUCGGGCGGCUAUAAACAGACCUCAGGCCCGAAGCGUGGCGGCACCUGCCGCCGGUGGUAAAAAAGAUCGGAAGAGCACACGUCU | 1.07
GGGUCGGAAGCCCAUAAUCGCGUGGAUAUGGCACGCAAGUUUCUACCGGGCACCGUAAAUGUCCGACUGGAGCCGUUCGGGCGGCUAUAAACAGACCUCAGGCCCGAAGCGUGGCGGCACCUGCCGCCGGUGGUAAAAAAGAUCGGAAGAGCACACGUCU | 1.03
GGGUCGGAAGCAUAUAAUCGCGUGGAUAUGGCACGCAAGUUUCUACCGGGCACCGUAAAUGUCCGACUGGAGCCGUUCGGGCGGCUAUAAACAGACCUCAGGCCCGAAGCGUGGCGGCACCUGCCGCCGGUGGUAAAAAAGAUCGGAAGAGCACACGUCU | 1.14
GGGUCGGAAGCAGAUAAUCGCGUGGAUAUGGCACGCAAGUUUCUACCGGGCACCGUAAAUGUCCGACUGGAGCCGUUCGGGCGGCUAUAAACAGACCUCAGGCCCGAAGCGUGGCGGCACCUGCCGCCGGUGGUAAAAAAGAUCGGAAGAGCACACGUCU | 1.09
GGGUCGGAAGCAAAUAAUCGCGUGGAUAUGGCACGCAAGUUUCUACCGGGCACCGUAAAUGUCCGACUGGAGCCGUUCGGGCGGCUAUAAACAGACCUCAGGCCCGAAGCGUGGCGGCACCUGCCGCCGGUGGUAAAAAAGAUCGGAAGAGCACACGUCU | 1.1
GGGUCGGAAGAUCAUAAUCGCGUGGAUAUGGCACGCAAGUUUCUACCGGGCACCGUAAAUGUCCGACUGGAGCCGUUCGGGCGGCUAUAAACAGACCUCAGGCCCGAAGCGUGGCGGCACCUGCCGCCGGUGGUAAAAAAGAUCGGAAGAGCACACGUCU | 0.997
GGGUCGGAAGCUGAUAAUCGCGUGGAUAUGGCACGCAAGUUUCUACCGGGCACCGUAAAUGUCCGACUGGAGCCGUUCGGGCGGCUAUAAACAGACCUCAGGCCCGAAGCGUGGCGGCACCUGCCGCCGGUGGUAAAAAAGAUCGGAAGAGCACACGUCU | 1.12
GGGUCGGAAGCUAAUAAUCGCGUGGAUAUGGCACGCAAGUUUCUACCGGGCACCGUAAAUGUCCGACUGGAGCCGUUCGGGCGGCUAUAAACAGACCUCAGGCCCGAAGCGUGGCGGCACCUGCCGCCGGUGGUAAAAAAGAUCGGAAGAGCACACGUCU | 1.1
GGGUCGGAAGCUUAUAAUCGCGUGGAUAUGGCACGCAAGUUUCUACCGGGCACCGUAAAUGUCCGACUGGAGCCGUUCGGGCGGCUAUAAACAGACCUCAGGCCCGAAGCGUGGCGGCACCUGCCGCCGGUGGUAAAAAAGAUCGGAAGAGCACACGUCU | 1.1
GGGUCGGAAGGACAUAAUCGCGUGGAUAUGGCACGCAAGUUUCUACCGGGCACCGUAAAUGUCCGACUGGAGCCGUUCGGGCGGCUAUAAACAGACCUCAGGCCCGAAGCGUGGCGGCACCUGCCGCCGGUGGUAAAAAAGAUCGGAAGAGCACACGUCU | 1.14
GGGUCGGAAGGUCAUAAUCGCGUGGAUAUGGCACGCAAGUUUCUACCGGGCACCGUAAAUGUCCGACUGGAGCCGUUCGGGCGGCUAUAAACAGACCUCAGGCCCGAAGCGUGGCGGCACCUGCCGCCGGUGGUAAAAAAGAUCGGAAGAGCACACGUCU | 1.48
GGGUCGGAAGGGCAUAAUCGCGUGGAUAUGGCACGCAAGUUUCUACCGGGCACCGUAAAUGUCCGACUGGAGCCGUUCGGGCGGCUAUAAACAGACCUCAGGCCCGAAGCGUGGCGGCACCUGCCGCCGGUGGUAAAAAAGAUCGGAAGAGCACACGUCU | 1.24
GGGUCGGAAGCUCAUAAUCGCGUGGAUAUGGCACGCAAGUUUCUACCGGGCACCGUAAAUGUCCGACUGGAGCCGUUCGGGCGGCUAUAAACAGACCUCAGGCCCGAAGCGUGGCGGCACCUGCCGCCGGUGGUAAAAAAGAUCGGAAGAGCACACGUCU | 1.09
GGGUCGGAAGCACAUAAUCGCGUGGAUAUGGCACGCAAGUUUCUACCGGGCACCGUAAAUGUCCGACUGGAGCCGUUCGGGCGGCUAUAAACAGACCUCAGGCCCGAAGCGUGGCGGCACCUGCCGCCGGUGGUAAAAAAGAUCGGAAGAGCACACGUCU | 1.13
GGGUCGGAAGCGCAUAAUCGCGUGGAUAUGGCACGCAAGUUUCUACCGGGCACCGUAAAUGUCCGACUGGAGCCGUUCGGGCGGCUAUAAACAGACCUCAGGCCCGAAGCGUGGCGGCACCUGCCGCCGGUGGUAAAAAAGAUCGGAAGAGCACACGUCU | 1.17
GGGUCGGAAGACUAUAAUCGCGUGGAUAUGGCACGCAAGUUUCUACCGGGCACCGUAAAUGUCCGACUGGAGCCGUUCGGGCGGCUAUAAACAGACCUCAGGCCCGAAGCGUGGCGGCACCUGCCGCCGGUGGUAAAAAAGAUCGGAAGAGCACACGUCU | 1.03
